Measured values published in patent US20090082299A1 (US Dept. of Health and Human Services, published 2009).
Each block holds one binder with its values, some of them ahead of it.

Target: human IL-15 expressed from plasmid hIL15tPA6 (human IL-15opt1-tPA6; improved IL-15 with tPA6 SIGPRO peptide) (human, UniProt P40933 49-162)
Test: cell-based or functional assay

human IL-15 expressed from plasmid hIL15tPA6 (human IL-15opt1-tPA6; improved IL-15 with tPA6 SIGPRO peptide), sequence (P40933 other isoform, or with tags, fused parts or gaps limits assumed): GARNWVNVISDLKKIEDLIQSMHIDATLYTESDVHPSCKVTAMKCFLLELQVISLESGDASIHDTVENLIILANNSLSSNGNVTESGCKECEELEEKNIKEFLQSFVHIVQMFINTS

total increase in IL-15 steady-state levels on co-expression in 293 cells, ELISA (FIG. 45A): 7 fold
B1: human soluble IL-15 Receptor alpha (extracellular part; plasmid AG98, hu sIL15RaOPT) (receptor)
chain: ITCPPPMSVEHADIWVKSYSLYSRERYICNSGFKRKAGTSSLTECVLNKATNVAHWTTPSLKCIRDPALVHQRPAPPSTVTTAGVTPQPESLSPSGKEPAASSPSSNNTAATTAAIVPGSQLMPSKSPSTGTTEISSHESSHGTPSQTTAKNWELTASASHQPPGVYPQGHSDTT

total increase in IL-15 steady-state levels on co-expression in 293 cells, ELISA (FIG. 45A): 4 fold
B2: human IL-15 Receptor alpha, whole / full length (plasmid AG79, huIL15RaOPT) (receptor)
chain: ITCPPPMSVEHADIWVKSYSLYSRERYICNSGFKRKAGTSSLTECVLNKATNVAHWTTPSLKCIRDPALVHQRPAPPSTVTTAGVTPQPESLSPSGKEPAASSPSSNNTAATTAAIVPGSQLMPSKSPSTGTTEISSHESSHGTPSQTTAKNWELTASASHQPPGVYPQGHSDTTVAISTSTVLLCGLSAVSLLACYLKSRQTPPLASVEMEAMEALPVTWGTSSRDEDLENCSHHL
